Laboratory results published in patent US10293024 (dated 2019).

What was measured:
6His-MAP kinase p38α = 6His-MAP kinase p38α (human); assay: other, NMR titration 298K
[1] = molecular target: T1, MAP kinase p38α (OH-p38α, non-phosphorylated) (human); assay: SPR, inhibition in solution
[2] = molecular target: T1, MAP kinase p38α (OH-p38α, …); assay: other, biochemical kinase assay

6His-MAP kinase p38α (human), sequence (chain, as listed by the source): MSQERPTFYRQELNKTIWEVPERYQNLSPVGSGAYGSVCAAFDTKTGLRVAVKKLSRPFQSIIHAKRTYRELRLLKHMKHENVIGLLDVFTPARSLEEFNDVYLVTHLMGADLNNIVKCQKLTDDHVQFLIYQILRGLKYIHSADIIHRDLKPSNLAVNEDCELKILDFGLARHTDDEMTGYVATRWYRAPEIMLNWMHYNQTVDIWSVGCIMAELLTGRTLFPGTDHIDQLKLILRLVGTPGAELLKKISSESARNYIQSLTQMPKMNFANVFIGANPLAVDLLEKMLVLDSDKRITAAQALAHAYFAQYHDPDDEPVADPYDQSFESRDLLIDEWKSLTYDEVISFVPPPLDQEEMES
T1 sequence (chain, as listed by the source): as above

Q: What does the source list for HKSRALLIFQKIMWLRRQ [BB2702]?
A: Kd (6His-MAP kinase p38α): < 1000 nM; Kd [1]: 25 nM; Ki [2]: 7 nM

Q: For RKPDLRVVIPPSS [MEF2A peptide], which Kd (6His-MAP kinase p38α) is on record?
A: ~250000 nM
